Reference: patent US11939397B2, “ENTPD2 antibodies, combination therapies, and methods of using the antibodies and combination therapies” (Novartis AG, priority 2018, dated 2024)

Molecular target: T1, ENTPD2 (Homo sapiens, UniProt Q9Y5L3)
T1 sequence (Q9Y5L3 1-495): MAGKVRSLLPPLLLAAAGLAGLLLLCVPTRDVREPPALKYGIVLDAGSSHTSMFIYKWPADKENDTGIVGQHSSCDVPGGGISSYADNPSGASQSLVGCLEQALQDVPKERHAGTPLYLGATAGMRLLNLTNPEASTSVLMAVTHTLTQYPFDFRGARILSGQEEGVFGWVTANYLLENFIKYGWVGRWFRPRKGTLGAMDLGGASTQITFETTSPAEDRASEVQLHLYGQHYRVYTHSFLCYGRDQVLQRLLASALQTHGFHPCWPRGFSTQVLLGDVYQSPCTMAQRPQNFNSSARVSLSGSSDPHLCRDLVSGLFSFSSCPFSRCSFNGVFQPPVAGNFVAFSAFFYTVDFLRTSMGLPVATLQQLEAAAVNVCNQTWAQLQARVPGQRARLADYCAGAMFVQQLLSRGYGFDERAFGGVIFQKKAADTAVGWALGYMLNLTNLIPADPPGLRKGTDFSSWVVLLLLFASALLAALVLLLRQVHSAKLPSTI
Test: FACS binding to human ENTPD2 expressing cells (NIH/3T3)
Parameters: expressed in transfected cells
Excerpt: Ten days after fusion, hybridoma plates were screened for the presence of ENTPD2-specific antibodies using flow cytometry to confirm specific binding of candidate antibodies to cell surface-expressed human ENTPD2 using three cell lines: parental NIH/3T3 cells, NIH/3T3 cells stably overexpressing human ENTPD2, and RKO cells (ATCC®), which expresses endogenous human ENTPD2. Cells were rinsed thoroughly with PBS, treated with Accutase (Millipore #SCR005) to lift them from the growth plates, and resuspended in cold PBS. Cells were biotinylated and labeled with a fluorescent dye according to manufacturer's instructions (FluoReporter™ Cell-Surface Biotinylation Kit, Thermo Fisher Scientific Cat #F-20650; PE-Cy7 Steptavidin, ThermoFisher Scientific Cat #SA1012). Cells were resuspended at approximately 1×10^6 cells/ml in FACS buffer (PBS with 2% FBS+0.1% NaN3). In a 384-well plate, 20 μL of hybridoma supernatant was pre-seeded and 20 μL of cell suspension was added. […] Geometric mean fluorescence intensity was calculated on live single cells using FlowJo™ software.
FACS screening: Specific binding of candidate antibodies to endogenously expressed ENTPD2 was assessed by flow cytometry. […] Geometric mean fluorescence intensity was calculated on live single cells using FlowJo software.

B1: mAb13: anti-mouse ENTPD2 monoclonal antibody, VH SEQ ID NO: 191, VL SEQ ID NO: 202 (antibody, V domains shown)
VH: QVQLVQSGAELKQPGQSVKISCKASGYTFTHYGMNWVKQAPGQGLKWMGWINTDTGNPTYADDFKGRFVFSLDTSVSTAYLQISNLKNEDTATYYCVRYGTLYSGYGFFFDSWGQGTLVTVSS
VL: DIMMTQSPSSLSVSAGEKATITCKSSQSLFNSNTNKNYLNWYLQKPGQSPKLLFYYASTRHTGVPDRFIGSGSGTDFTLTITSVQDEDLADYYCQQWYSYPWTFGPGTKLEIK
With B1 the “binding to human ENTPD2” value was “no binding”.
